The nanobody polyreactivity screen of Harvey et al. (2022)

Assay: yeast display, Sf9 membrane polyspecificity reagent, FACS + sequencing; frameworks hold sequencing errors
Method in brief: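 Nanobodies came from a synthetic yeast display library in Saccharomyces cerevisiae BJ5465, induced with galactose for 36–48 hours and stained for 1 hour at 4 °C with 10% biotinylated, detergent-solubilized Sf9 membrane reagent. Cells were enriched on streptavidin microbeads and then FACS-sorted, with low and high (top ~1%) gates set on anti-HA fluorescence for expression and streptavidin fluorescence for reagent binding. Each polyreactivity label reflects the gate a clone came from. Genes were amplified by colony PCR, sequenced by MiSeq 2 × 250 and filtered by CDR length.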

Row | Sequence | polyreactivity (PSR sort gate)
1 | QVQLVESGGGLVQARGSLRLSCAASGSTLRRYAMGWYRQAPGKERELVAAISGSGDSTYYADSVKGRFTISRDNAKNTVYLQMNSLKPEDTAVYYCNAVYAFNGYDYWGQGSQVTVSS | low polyreactivity
2 | QVQLVESGGGLVQAGGSLRLSCAASGSTFYWYSMGWYRQAPGKERELVAAITSTGGSTYADSVKGRFTISRDNAKNTVYLQMNSLKPEDTAVYYCNVDTSSPSRRDYDYWGQGTQVTVSS | low polyreactivity
3 | QVQLVESGGGLVQAGVSLRLSCAASGVNAMGWYRQAPGKEREFVAAITSIGGSTYYADSVKGRFTISRDNAKNTVYLQMNSLKPEDTAVYYCNTDRGPVKVSPLYESWGQGTQVTVSS | low polyreactivity
4 | QVQLVESGGGLVQAGGSLRLSCAASGITFYWYAMGWYRQAPGKERELVASITGNGGGTSYADSVKGRFTISRDNAKNTVYLQMNSLKPEDTAVYYCNTSVGGKEYDSWGQGTQVTVSS | low polyreactivity
5 | QVQLVESGGGLVQAGGSLRLSCAASGSNSVYAMGWYRQAPGKERELVAAITISGGITYYADSVKGRFTIARDNAKNTVYLQMNSLKPEDTAVFYCNADQGSALRWSYDYWGQGTQVTVSS | low polyreactivity
6 | QVQLVESGGGLVQAGGSLRLSCAASGSTFRRNAMGWYRQAPGKERELVAAITRRGGTYYADSVKGRFTISRDNAKNTVYLQMNSLKPEDTAVYYCAADRSYYDWRYGGFDYWGQGTQVTVSS | high polyreactivity
7 | QVQLVESGGGLVQAGGSLRLSCAASGNAMGWYRQAPGKERELVAAITYGGTTTYYADTVKGRFTISRDNAKNTVYLQMTSQKPEDTAVYYCAADNVSVATPLRYDYWGQGTQVTVSS | low polyreactivity
8 | QVQLVESGVGLVQAGGRLRLSCAASGRTFYYYAMGWYRQAAAKERELVAAITTDGGNTFYADSVKGRFTISRDNAKNSVYIQMNSLKPEDSAVYYWAKSDTEGYYWDVPVTFDYGGQGTQVTVSS | low polyreactivity
9 | QVHLVDSGGGLVQAGGSLRLSCAASGSIISVYFMEWYRQAPGKERELVASITSGASTNYADSVKGRFTISRDNAKNTVYLQINSLKPEDTAVYYCCARDWYDGFYYWGQGTQVTVSS | low polyreactivity
10 | QVQLVESGGGLVQAGGSLRLSCAASGRTFYYYTMGWYRQAPGQERELVAAISVSGGTTYYADSVKGRFTISRDNAKYSVYLQMNSLKPDDTAVYYCAAGDGWGRRYYWGQGTQVNVSS | high polyreactivity
11 | QVQLVESGGGLVQAGGSLRLSCAASGFILTSNAMGWYRQAPGKERELVAAITRNGARTYYADSVKGRFTISRDNAKNTVYLQMNSLKPEDTAVYYCAAETVSYWWWGQDIPYYYWGQGTQVTVSS | high polyreactivity
12 | QVQLVESGGGLVQAGGSLRLSCAASGRIFRSYAMGWYRQAPGKERELVAAITWGGGRTYYADSVKGRFTISRDNAKNTVYLQMNSLKPEDTAVYYCNTLAYPYYRGSKYDYWGQGTQVTVSS | high polyreactivity
13 | QVQLVESGGGLVQAGGSLRLSCAASGRTFFYYAMGWYRQAPGKERELFATITKRGGSTYYADSVKGRFTISRDNAKNTVYLQMNSLKPEDTAVYYCAATYYRQGRRYLGYDYWGQGTQVTVSS | high polyreactivity
14 | QVQLVESGGGLVQAGGSLRLSCAASGRIFGYYVMGWYRPAPGKERELVAAIRSSADSTYYADSVKGRFTISRDNAKNTVYLQMNSLKPEDTAVYDCAAQSPAYYTKSYWGQGTQVTVSS | low polyreactivity
15 | QVQLVESGGGLVQAGGSLRLSCAASGFTIYRYAMGWYRQAPGKERELVAAISSIGGSTYYADSVKGRFTISRDNSKNTVYLQMNSLKPEDTAVYYCAAAISLYSYDYWGQGTQVTVSS | low polyreactivity
16 | QIQLVESGGGLVQAGGSLRLSCAASGFTFYYYVMGWYRQAPGKERELVAAISSRGGSTYYADSVKGRFTISRDNAKNTVYLQMNSLKPEDTAVYYCAATYWPYRPGYYYWGQGTQVTVSS | high polyreactivity
17 | QVQLVESGGGLVQAGGSLRLSCAASGSTFLRYAMGWYRQAPGTERELVAALSYSGGSTYYADSVKGRFTISRDTAKKTVSLQMNSLKPEDTAVYYCNAGVFANDNGGRLDQFTWEYEYWGQGTQVTVSS | low polyreactivity
18 | QVQLVESGGGLVQAGGSHRFSCAASGRIFYGHVMGWYRQAPGKERELVADISYDGGSTYYADSVKGRFTISRDNAKKTVYLQMNSLNPEDTAVYYGATRFVYRYTFWYYSTEYNYCGQGTQVTVSS | low polyreactivity
19 | QVQLVESGGGLVQAGGSLRLSCAASGSTFAGNAMGWYRQAPGKERELVAAISSSGAGTYYADSVKGRFTISRDNAKNTVYLQMNSLKPEVTAVYYCNVGSRALRRRVRSVSFDYWGQGTQVTVSS | low polyreactivity
20 | QVQLVESGGGLVQAGGSLRLSCAASGFIFRRYTMGWYTQAPGKERELVATITRSVNTDYADSVKGRFTISRDNAKNTVYLQMNSLKPEDTAVYYCAARKYYYFPVAYDYWGQGTQVTVSS | high polyreactivity
21 | QVQLVESGGGLVQAGGSLRLSCAGSGITFYWYAMGWDRQAPGKERELVAGISQSGSRTYYADSVKGRFTISRDNAKNTVYLQMNSLKPEDTAVYYCAARVRWSPTRTFEYWGQGTQVTVSS | high polyreactivity
22 | QVQLVESGGGLVQAGGSLRLSCAASGRTFNVYAMGWYRQAPGKETELVAVITNGGSTNYADSVKGRFTISRDNAKNTVYFQMNSLKPEDTAVYYCAAREDLYLYYNGQRVQYDYCGQGTQVTVSS | low polyreactivity

Row | Sequence | polyreactivity (PSR sort gate)
23 | QVQLVESGVGLVQAGGSLRLICAASGSIFYPYTMGWYRQAPGKERELVAAITINGGSTYYADSVKGRFTISRDNAKNTVYLQMNSLKPEDTAVYYCAAYYASPRHGYWGQGTQVTVSS | low polyreactivity
24 | QVQLVESGGGLVQAGGSLRLSCAASGLTFARYAMGWSRQAPGKERELVAAISSSGGTKYADSVKGRFTISRDNAKNTVYLQMNSLIPEDTAVYYCNADAVVERSSVWYYWSIYEYWGQGTQVTVSS | low polyreactivity
25 | QVQIVESGGGLVQAGGSLRLTCAASGLISTYYVMGWYRQAPGKERELVAAIRASDASTYYADSVKGRFTISRDNAKNTVYLQMNSLKPEDTAVYYCATDSYYVDDTEYDYWGQGTQVTVSS | low polyreactivity
26 | QVQLVESGGGLVQAGGSLRLSCAASGSTFAIYAMGWYRQAPGKERELVASISGGSTNYADSVKGRFTISRDNAKNTVYLQMNSLKPEDTAVYYCAARGALHHWYRYDYWGQVTQVTVSS | low polyreactivity
27 | QVQLVESGGGLVQAGGSLRLSCAASGRIFYYNAMGWYRQAPGKERDLVAAITYSGTSTYYADSVKGRFTISRDNAKNTVYLQINSLKPEDTAVYYCAVDSTDQAPPTYDYWGQGTQVTVSS | low polyreactivity
28 | QVQLVESGGGLVQAGGSLRLSCAASGFTFSAYAMGWYRQAPGKERELVAAIRSSDITYYADSVKGRFTISRDNAKNTVYLQMNSLKPEDTAVYYCAADLGDYYLYYDYEYWGQGTQVTVSS | high polyreactivity
29 | QVQLVESGGGLVQAGGSLRLSCAASGFTFSRYTMGWYRQAPGKERELVAAISFSGVRTYYADSVKGRFTISRDNAKNSVYLQMNSLKPEDTAVYYCNRVSRTRGLNLYDYWGQGTQVTVSS | high polyreactivity
30 | QVQLVESGGGLVQAGGSLRLSCAASGFIFNNYAMGWYRQAPGKERELVAAITWSGGGTYYADSVKGRFTISRDNAKNTVYLQMTSLKAEDTAVYYCAVYYPAYRDEYWGQGTQVTVSS | high polyreactivity
31 | QVLMQESGGGLVQAGGSLRLSCAASGNIFSAGGMGWYRQAPVNERELVAGIGTATSTNYADSVKGRFTFSRDNAKNTVYLQMNSLKREDTAVYYCAAAYYSGLSHWYWGQGTQVTVSS | low polyreactivity
32 | QVQLVESGGGLVQAGGSLRLSCDASGNTFVRYAMGWFRQAPGKERELVAGISASGGSTSYADSVKGRFTISRDNAKNTVYLQMNSLKPEDTAVYYCARNYWLYSSSYDSWGQGTQVTVSS | high polyreactivity
33 | QVQLVESGGGLVQAGGSLRLSCAASVIIFTRYAMGWYRQATGKERELVAGITRRGGSTYYADSVKGRFTISRDNAKNTVYLQMKSLKPEDTAVYYCNTYQRDYPYGVEDDSWGQGTEVTVSS | high polyreactivity
34 | QDLLVESGGGLVQAGGSLRLRCAASGITFAFYTMGWYRQAPGKPSELVTAISYSGGRTYNADSVKGRFTISRDNAKYTVYVQMLSLKPEDTAVYYCNTRYRGSYDYWGQGTQVTVSS | high polyreactivity
35 | QVQLVESGGGLVQAGGRLRLSSAASGIIFGNNAMGWYRQAPGKERELVAAIRYSGGRTYYADSVKGRFTISRDIAKNTVYLQMNSLKPEDTAVYYCNALRRGPDGSDYWGQGTQVTVSS | high polyreactivity
36 | QVQLVESGGGLVQAGGSLRLSCAASGFILVFYAMGWYRQAPGKERELVAAIDWSGTITYYADSVKGRFTISRDNAKKTVYLQINSLKPEDTAVYYCAADGEPFYDFDYWGQRTQVTVSS | high polyreactivity
37 | QVQLVESGGGLVQAGGSLRLICAASGRIFVRNAMGWSRQAPGKERELVAAITSGGRTYYADSVKGRFTISRDNAQNTVYVQMNSLKPEDTAVYYCAARAGNASAIDVAYWGQGSQVTVSS | low polyreactivity
38 | QVQLVESGGGLVQAGGSLRLSCAASGRIFSIYAMGWYRQAPGKEREFVAAITQSGGSTYYADSVKGRFTISRDNAKNTVYLQMNSLKPEDTAVYYCAADEWGVRSEYDYWGQGTQVTVSS | low polyreactivity
39 | QVQLVESGGGLVQAGGSLRLSCAASGRSFDVNAMGWYRQAPGKERELVAAISTRGGGTYYADSVKGRFTISRDNAKTTVYLQMNSLKPEDTAVYYCNVVRRYGGRGFDYWGQGTQVTVSS | low polyreactivity
40 | QVQLVESGGGLVQAGGSLRLTCAASGRTFGKYAMGWYRQAPGKERELVAAISSSGSTNYADSVKGRFTISRDNAKNTDYLQMNSLKPEDTAVYYCAAVQPGQSTVAYDYWGQGTQVTVSS | high polyreactivity
41 | QVQLVESGGGLVQAGGSLRLSCAASGRTFRGNAMGWYRQAPGKERELVAAISRSGGTTYYADSVKGRFTISRDNAKNTVYLQMNSLKPEDTAVYYCNRGWATWHGPDDYWGQGTQVTVSS | high polyreactivity
42 | QVQLVESGGGLVQAGGSLRLSCAASGFTFRRYAMGWYRQAPGKERELVAAISTSGGRTYYADSVKGRFTISRDYAKITVYLQMNSLKPEDSAVYDCNAAGGYRTSPSDYWGQGTQVTVSS | high polyreactivity
43 | QVQLVESGGGLVQAGGSLRLSCAASGLTFIHYSMGWYRQAPGKEREFVAAISTNSGSTYYADSVKGRFTISRDNAKNTVYLQMNSLKPEDTAVYYCAARGLRWRIDGEYWGQGTQVTVSS | high polyreactivity
